Assay results as given in the DeepSol protein solubility set.

Assay: soluble on expression in E. coli; label from the status in PepcDB or PDB records
In the case of “MGSDKIHHHHHHMPSIQELENFIIYGKVRNFTLAANQANITQSAFSFQMKKLEETLGVKLILRSNRGSSLTPEGEIFYKKISEILPELVGVIYEFQQINGEKAIELKVGVLTSLGDILMNQHVNYFQKNKNILITVYSMEKNELIRALNNGKIDIASTFLFDDETLENFEKSLFRKDKIVYYAPKIKEISGTIKRDNMLKVPLVKYPPDNFMNKMIDQYFNIERKMPTVAAKLPSPYAFIEYCKQDTAGAFITERLLNTLGFKYKQEYFNIDPPYEIKAFLLYKKENPKYSAIKIFTDYVVKLNQRDS”, the “soluble on expression in E. coli” value was “not soluble”.
With “MGSDKIHHHHHHMPSPIDLHSHSTVSDGLLAPEALVAHAAEQGVKVLSLTDHDDTSGLAPAASAAAGHGMEFINGVEISVTWRRKTIHVVGLRVDPDHGPLREGLEKIRAGRHLRAENIAASLEKFGIKGSLEGAYAHARQGIIGRAHFARYLIDQGYASNMKAIFKRYLVKGKPGYVEHHWATLEEVVAWINGSGGVAVLAHPGRYDIGRSNMLLLLEEFRNLGGTAIEVVTGSHNADQFQEYAKLAHMFGLKSSMGSDYHGPGHGNIEMGRLPDLPRGCIPVWQDWPEIRSLNN” the “soluble on expression in E. coli” value was “not soluble”.
With “MGSDKIHHHHHHMPTGNELPINEGASALQMANTIFGPGVTVNTASYTGWSQSSGIYTNGDSVAPGVTPSDTGVILSTGRASHITQSNGDPNRSDSTSTNTPGPSNDPDFNAIAGFVGSNDASFLEVNFTPTTDVLTMQFTFASEEYPEYTGSVFNDIFGVWVNGALVASPVVNVTQINSVNQSENATLFNNNTDDDYNTEMDGFTVTLTLVMPVNINQPNDIKIGVADVADSAYDSNVLIAAGSIQGEFVAESDSITHLEGLTSVLDVLANDPTSGGIAFITHINGVEVNPGDSVTLSDGTIVTLLPSGELQIDPPATQTGLTSSETIHFTYTVDNGSGITDTAFVTVTAIPCFARGTMILTAHGEKPVETLVPGDRIATRDNGLQEIRWIGTRKVAAEGRFAPIAIEAGTFGMHRRLVVSPQHRVMLTHWMAEVMFGEDEVLVAAKDLVNDCSVRVLGPGDFDDGEVEYFHLLFDQHQIIFSDGLATESFLPGPTVMNDLDAAVQEEVLALFPDIDPDTKDGYGPAARLPLRAFEARAMLA” the “soluble on expression in E. coli” value was “not soluble”.
With “MGSDKIHHHHHHMQDVTGRALVMMESATQGQQGIAMDLVQEAFIALHKSYADRSTEEWYPLFYTILNNKLQDWRRKEARRANPFSFFKKVSLDNDDEEIIDIVDEKAINPADFLDQAVTIEEIQEAIAKLPVRQQQAFMLRAWEGFDTHTTAQIMNCTEGSVKTHYHRAIQGLREYLAHLNPMGGSNES” the “soluble on expression in E. coli” value was “not soluble”.
With “MGSDKIHHHHHHMQEIELKFLVPEPRLKGLMRQAKIKSSQVTQLAAHYYDTPDQQLAQAGIGLRIRQEGNAWVQTIKASGDGIAARLEHNLTLDNEQVQAMLDNNELLPDLTIYKDTPIAPALADFKLKKLAKQLTRLYVTDVERTTRLLIKDTGDEVVNSIEMAYDYGEIIHGTDDTQRDVIQEIEFELISGELDFLFSTAKTWCQRYKLCLSTVTKAERGGRLIKGQSHTPATAADLSELNIDKKIGMPAFLRAVVHNCLLQILPNSSAIVAGSKDNEHLLQLSIGIERLHTVLQAFDSFSDEINPDWSAILQQTATLLTEYRKLAYLSTHIEPRLQKDGAPIVDWTADIDALKITPIAAISTNHFQIMLLELIAFTMSDPSLEPQTDKLAINKLEKILVKYHEKLLKAEQYLEDRYDESDSELENESIIKALHNLHDHLKDLRYISELVAPLYGKKKTKRWLKRTVKAQKTLGQQLNMSDYQQYYQSKASSDFAALYAAGWLNAVLIPMEKATEKRLDKFYACSVFW” the “soluble on expression in E. coli” value was “not soluble”.
With “MGSDKIHHHHHHMQEMILLQQKVDETIRALGGYFRPLSGLARLIEEVGEVGEALETGDELSFQAELVDVLMISTCLANQYVTDLAQQHQQLGTMEDEGQGSFYRLVHEAGQVARVMNGYEGDKPPKQTEDIIPIGMSLARLQRELFRLVRPHGINLLQEIDRTNEKNLNRDRKRFALTRDPVTEATIDHFRSATGNTERLWGAPAYESDLALEAHIQAALPSLRRFLRCARIEGIAGFVIEAPMERTDSLRSVKDQADEIGRIVKEQTPLSFKEAPYRIDVYAPQLGPVSPYHAEDDHRMFLVLHVDE” the “soluble on expression in E. coli” value was “not soluble”.
For “MGSDKIHHHHHHMQILKTSDVPTGIVLLDRRLDGGLPAGSFVCVYANPLAMPEAFLYQFATVLKTYYFTTSRPAKFVKQDMEKLRLDTSFVTFVDVYEQYYLNEYGQFIVEDRYRDKEIFDYVDDRLSRIAEEESGEYNVIIDSLSFFLNLNTDWGLKDWLINKLYTLAKEKGVVVYCHLIKNLHPVDVVNKVLDISDVVFDIEVERVGERLVSKFAVPKLRGKRPVTEYFRFYVEEGIQVDTSRDIA”, the “soluble on expression in E. coli” value was “not soluble”.
In the case of “MGSDKIHHHHHHMQKPCIATPFSSYQETVPSLLQAVGAPGLLSRQSCILIKPNLVNASPPPVTLPVAACEALVAACRRWSKARIVIAEGSGDRDLSTGEIFQRLGYERLARRYDVDLVDLNNAELVELQNPLCEVFPTFMMPRMVMDSFVISAAVLKAHSLAEVTLSMKNMIGVAPPAYYQQGGHWKKSAFHAQMHRSIFELNRYRKPDLAFIDASVGLAEYHLGGPTCEPPVDKLLAGFDPVAVDAAGSELLGIPWQQVEHIRLADGLLGRAGK”, the “soluble on expression in E. coli” value was “not soluble”.
With “MGSDKIHHHHHHMQNPQQVSASKTLSPILVQGAMDIEVETLIAALGKVTVNTFGSWTFWEGELSGHPVVVSRTEIGLANAAAATTLAIAHYRPKLIINQGTAGGHDPKLYRGDIVIGETSFNMGSYLTKLTPKGQGIHPTQWQNFDMTMYLRENGEVVKHNHFKADPALVEVALSQAHHYTKGNVVKGIIGTGDEWNRELDRINWLHHTFGTAVEEMETSAAALVAEAYKLPFVSIRILSNTDQHDQDCDPQTAVDCQQFVLNIIQQLINTTK” the “soluble on expression in E. coli” value was “not soluble”.
In the case of “MGSDKIHHHHHHMQREEWFHRAVIYQVDSSLFYDANGDGFGDLAGIRQKLHYIRSLGATVLWLTPFYLTPLQDDGYDISDHLQPDPRFGTIADVIELIARARELGLRVIVELVIQHTSAQHPWFQAARRDPRSPWRPYYLWADRPPENDDPPMFPGVEESVWRWDEQAGQYYRHMFYHHEPDLNLAHPPVIAEIENIITFWLQAGVSGFRLDAASHLVKQAGKGDETRGYPLLTHLRQVVQRLNPDAILLGEVDVAVEDYRHYFGQGDRLQMVLNFWLNKYLYLSLAQQRAAPVVKALQAMVTPPDGCCFVNWLRNHDELDLEGIGERNKRQVIRTFAPDKSMSVYQRGVRRRLAPMLDGDTRRIALAHAILLALPGVPVMRYGDEIGMGDDLSLPERYAVRTPMQWSAAANAGFSRAARDDLPVKPVASGRFRYQRINVETALRHPRSLLHRVRNMVLARTEYTEPGSLPFTLLTLKPDAVLGLLYRSESREVLMLANCSQQAVEVLLPPLAEGYWSPILEDKLYQDGLHGGKDARLALSGYGYRWFSRSLS”, the “soluble on expression in E. coli” value was “not soluble”.
With “MGSDKIHHHHHHMQRHLVDEFWCINVDSTAWSKVLHRGTRREFKKGEQIVSAGELVTQLRYLESGSVCMKRTTLDGNEKILMHIERSSLFCEVPFFTGDEIHSSFNCHRDAVVYCFSKEVVDDILEMYPCIAKDIIRTLSMKVSVLSNQIASLGLDTLEQRIAKFILLRYNLMNLADADLMTLGTLRMKDVASILGVHRATLYRALKTMEKMRLIKLLNENRLQVLNIEALAALANH” the “soluble on expression in E. coli” value was “not soluble”.
In the case of “MGSDKIHHHHHHMQSTALRYFLEVARCGSISEASVRLNVASSAVSRQISKLERELDALLFERQARGMMLSEAGIRLAAYARKSQLEAEQVVLEITELQGLQRGHVRIACSEGFALDFLPQCIARFRRLYQGIHFSMEVCAPAQATERVRSGDADLCLTFSLTPQNEIKVEHIHSGAICAVVSHNHPLASRKEVALAELQPYAIALTNTDTTLRQLFDICCGVQGLMFDPVLTSNYIGSLLRFVSEEGGISLSSEMTLDKRVHEKQLKSLPISDEGMKARRIELQSMAGRNLPAAVAAFRDFLIEELAKT”, the “soluble on expression in E. coli” value was “not soluble”.
For “MGSDKIHHHHHHMQTFPAYSSMQLSLSPTQCQPLKIIALGDSLVYGFGDPDKGGWVEQLRRWWMLPDSSGHVLYNLGVRGDRTQQVAQRLEVEFRHRGELRNRVPDLIILSVGVNDSARLTRLNGRNCTDFALFESEIASLLDQAQQLCPVLFVGMVPVDEAKMPFLNCFYFNHADQYRYKEATRIACNQRQIPYLDIFDQWMARGDAWRNKRLTEDGLHPNTLGYQSLLEDVIHWEHLAGYHTRPDYQLK”, the “soluble on expression in E. coli” value was “not soluble”.
In the case of “MGSDKIHHHHHHMQTVQALLTAAKVDSAESPYDTIHIKVLYPAKNTDSNLEKNWGMLPVDAAQAPFPVVIFFNGFNCDAQKYQWLGIELAQTGLVVVMFNWVGESLPGLVSFTPGFEIEKRKREFYGTVPTASALPVILTKLAQLQSAGILSGTLDLEKIILGGHSEGGRVAMENANPNFFPQVVASFAYGSHTAGAVMLGYKPNTILPLPDTLPRLVIGGTHDGVIANSSAHFGLNTKDATTPVIRTFQEAIMGGRENSYLLLLRGANHFSIVDIVDSTLALPFKDIPATQPQEHFRLLLATIIHLFIDAHVRHQPEAFQKLEQLLIVTNPLIQSFERK”, the “soluble on expression in E. coli” value was “not soluble”.
With “MGSDKIHHHHHHMQVGDRIVVRQEEFDTIGHVLSVDPLIVRPHARGGLPSNAEPVRIDNPLMIKRLSPRTVRNADIRAIEVATAKAFPGIEHTWCGQWLLRAGDGVTERSNSAAPLGPQALFTPVPYEEIKEFYRRHNLPALILVPERIAPAIPDDGPEIIVMTHPLDNVSEIDDVHAEFLDQPDDDWLELYHFRGKALPRHALELLRTTIDGRMCFGRLKRDGKTVAITRGTITDGYLGYSAVEVAPEYRRQGLATELGAAMLAWGKAHGAHTAYLQVIESNAAGIGLYHKLGFVEHHRHKYVRVS” the “soluble on expression in E. coli” value was “not soluble”.
With “MGSDKIHHHHHHMQWLTFQWLEFIREYREKAKHNLSNSGMPEPDLKSLGIDTSYEHYLDAAGEVEYRFTEALSRRLRVDQDLIIPTVGGTEAIFIALSHLSSVSKRIHVPLPEYEPMFLVPESLGIETSKIESKVMPGRISKNESIAMTLPNNPTAQYSDRISLLDNVIHSEGLIYIDETFRDFLPSGTRPTLFDGSETMVVSGTMTKFYGLSNLRTGWIISSEHNVAGMRRIKDLTSINNASFSLYIAAQAIQKWNYFKEAEDNLINKNLRVAREYLEGLPGISYKEPEGAPFIFLSYSKNIESVKLAKLAVERYGILFAPGSFFGEEHHIRVCLTSNKPEEDFNVLKEFLKKEAV” the “soluble on expression in E. coli” value was “not soluble”.
With “MGSDKIHHHHHHMRAAQYLRMSTEHQTYSIDNQRDAIRDYAEIMGYEIVATYEDAGRSGLNLGGRPGLQRLLADVESGRADFETVVVYDVSRWGRFQNIDESAAYEYRCQMAGVRIEFCAEQFANDGSIESDVLKAIKRSMAAEQSRMLSQKVFIGQARLIRMGFRQGSKVGFGLRRLLVDQHGRPKGILSPSEYKSLQTDRIILVLGPPDEIATVRWIFGHFVKTRKTELEMARLLNKRGVLSDLGRPWTRVSVHSVLTNENYIGNSIWNKHSARLRSHQVRNPPELWVRVENILEPIVDRKLFNRAQIVLKTIYRHLTNDEMLAALKALLARRGALSSFIIDAAPDCPPSTRYMSRFGTIVKAYELIGYEPPKNSRYIFVNRRLETMRLQIIEDLLAAVEKRGGIATHVMETDLLRINQEITVAIATGRCRVSSFGYPRWFAKADREPPPDIFVLIRMNPDDLSIRDYLIAPAHEIAGKSELHAINGARLDTYIFPTLNPLIRLAERASVGSAAWN” the “soluble on expression in E. coli” value was “not soluble”.
In the case of “MGSDKIHHHHHHMRALLSGYYGKGNGGDEALLATLLQMLPSHVTPVVLSGNPEETSDRYGVESHNRMSLTSVLPALRSCDAFIWGGGSLIQDVTSSISPFYYGGLMALAQKMGLKTVAWAQGIGPLVRPQTRWLAQHNFSGCTTVSVRDRVSAALLADWQIPYILAPDPVWALQAKPFPELANLPTPRIAVTLRNHPQLTAPRLANLTQALVSLQKSTQAFILLLPFQKSEDLAIAQAIQPQLKDVSEIVCIEDPQILKGVFRGVEMAIGMRLHSLIMAASEGCRCFALSYDPKINRLMEDLAIPGWDLANLPDNANVISKTWIDFYTNAQPLASEKITTLVEGAFMHRELLRKALGRIN”, the “soluble on expression in E. coli” value was “not soluble”.
